Assay: yeast display, Sf9 membrane polyspecificity reagent, FACS + sequencing; frameworks hold sequencing errors
Summary of the method: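 Using colony PCR, genes from sorted yeast display clones were amplified, then sequenced on MiSeq at 2 × 250 and filtered by CDR length. The clones had been stained with 10% biotinylated, detergent-solubilized Sf9 membrane reagent for 1 hour at 4 °C and sorted by FACS into low and high (top ~1%) gates on anti-HA and streptavidin fluorescence. Polyreactivity labels come from the gate of origin.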

Row | Sequence | polyreactivity (PSR sort gate)
1 | QVQLVESGGGLVQAGGSLRLSCAASGSTSGIYAMGWYRQAPGKERELVAAIDTSGGSTYADSVKGRFTISRDNAKNTVYLQMNSLKPEDTAVYYCAKPFSSNSWSHGYWGQGTQVTVSS | low polyreactivity
2 | QVQLVESGGGLVQAGGSLRLSCSASGFTFRYYTMGWYRQAPGKERELVAAISRSSGSRTYYADSVKGRFTISRDNAKNTVYLQMNSLKPEDTAVYYCNADPAYQFDYWGQGTQVTVSS | high polyreactivity
3 | QVQRVESGGGLVQAGGSLRLSGAASGFTFHSYAMGWFRQPPGKERELVAAISTGGTRTYYADSVKGRFTISRDNAKNTVYLQMNSLKPEDTAVYYCAADLSRRVRIYSKYDSWGQGTQVTVSS | high polyreactivity
4 | QDQHVDSGGGLVQAGGSLRLRCAASGFTIADYAMGWYRQAPGKERELVAAINRSGGRTYYADSVKGRFTISRDYAKNTVYLQMNMLKPEDTAVYYCAAYGITYHNSDSWGQGTQVTVSS | high polyreactivity
5 | QVQLVESGGGLVQAGGSLRLSCAASGRTFVYNAMGWYRQAPGKERELVAAIDGGGDRTYYADSVKGRFTISRDNAKNTVYLQMNSLKPEDTAVYYCNARWQEPLKYDYWGQGTQVTVSS | low polyreactivity
6 | QVQLVESGGGLVQAGGSLRLSCAASGRIFYDYTMGWYRQAPGKERELVAAINSGGGSTYYADSVKGRFTISRDNAKNTVYLQMNSLKPEDTAVYYCNADGQWNIWEYDYWGQGTQVTVSS | high polyreactivity
7 | QVQLVESGGGLVQAGGSLRLSCAASGSTLVGNAMGWYRQAPRKERELVATISKRSGSTYYADSVKGRFTISRDNAKNTVYLQMNSLKPEDSAVYYCNADDVRRRAYRIGSYWGYDYWGQGTQVTVSS | low polyreactivity
8 | QVQLVESGGGLFQAGGSLRLSCAASGRIFGWYAMGWYRQAPGKDRELVAAMSSSTSTYYADSVKGRFTISRDNEKNTVYLEMNSLKPEDTAVYYCNADWYYQRGQNYWFRYDYWGQGTQVTVCS | high polyreactivity
9 | QVQLVESGGGLVQAGGSLRLSCAAPGSTFGRYAMGWYRQAPGKERELVAAISKSGGSTYYADSVKGRFTISRDNAKNTVYLQMNSLKPEDTAVYYCAATTTRYSYEYWGQGTQVTVSS | low polyreactivity
10 | QVELVESGGGLVQAGGSLRLSCAASGYIFNYYAMGWYRQAPGKERELVAAISTSGGSTYYADSVKGRFTISRDNAKNTVYLQMNSLKPEDTAVYYCAAVDYKANGYGYWGQGTQVTVSS | high polyreactivity
11 | QVQLVESAGGLVQAGGSLRLSCAASGSTFVTYAMGWYRQAPGKERELVAAISSTGTGRTYYADSVKGRFTISRDNAKNTVYLQMNSLKPEDTAVYSCAADATSPLTWFDYWGQGTQVTVSS | low polyreactivity
12 | QVQLVESGGGLVQAGGSLRLSCAASGSTFKSYVMGWYRQAPGKERELVAAISSGDSTYYADSVKGRFTISRDNAKNTVYLQMNSLKPEDTAVYYCNADVSLDDYDYWGQGTQVTVSS | low polyreactivity
13 | QVQLVESGGGLVQAGGRLRLSCAASGSTNYRYAMRWYRQAPGKERELVATISRTGARTNYADSVKGRFTISRDNAKNTVYLQMNSLKPEDTAVYYCAASAPYIYYWGQGTQVTVSS | high polyreactivity
14 | QVQLVESGGGLVQAGGSLRLSCAASGSIFGIYAMGWYRQAPGKERELVAAIRRGGSTYYADSVKGRFTISRDNAKNTVYLQMNSLKPEDTAVYYCAGRKYRLWGKGVDYDFCGQGTQVTVSS | high polyreactivity
15 | QVQLVETGGGLVQAGGSLRLSCAASGSTFYAYVMGWYRQAPGKERELVAAITSAGSTYYADSVKGRFTISLDNAKNTVYLQMNSLKPEDTAVYYCAADAYTESAYYKYDYWGQGTQVTVSS | low polyreactivity
16 | QVQLVESGGGLVQAGGSLRLSCAASGLIFVINAMGWYRQAPGTERELVATISSGVSTNYADSVKGRFTISRDNAKNTVYLQMNSLKPEDTAVYYCNKGQTVSRGYRLYERYVYWGQGTQVTVSS | low polyreactivity

Row | Sequence | polyreactivity (PSR sort gate)
17 | QVQLVESGGGLVQAGGSLRLSCAASGSIFYGNGMGWYRQAPGKERELVAVISVSGGRTFYADSVKGRFTISRDNAKNTVYLQMNSLKPEDTAVYYCATRTYRVDPEFGYWGQGTQVTVSS | high polyreactivity
18 | QVQLVESGGGLVQAGGSLRLSCAASGSTFEYYAMGWYRQAPGKERELVAAITGSGDNTYYADSVKGRFTISRDYAKNTVYLQMNSLKPEDTAVYYCAATLRVKGQYGRMYYWGQGTQVTVSS | high polyreactivity
19 | QVQLVESGGGIVQAGGSLRLSCPASGRIFGPNAMGGYRQAPGKERELVAVISRRGTSTYYADSVKGRFTISRDNAKNTVYLQMNRLKPEDTAVYYCAAGGHYLYDYWGQGTQVTVSS | high polyreactivity
20 | QVQLVESGGGLVQAGGSLRLSCAASGFTFDGNAMGWYRQAPGKERELVATITSGGNTKYADSVKGRFTISRDNAKNTVYFQMNSLKPEDTAVYYCAAAQYNYRRFNYWGQGTQVTVSS | low polyreactivity
21 | QVQLVESGGGLVQAGGSIRLSCAASGRILYYYVMGWYRQAPGKERELVAAITRGGSTDYADSVKGRFTISRDNAKNTVYLQMNSLKPEDTAVFYCAVPSWPFWVRVEGDYWGQGTQVSVSS | low polyreactivity
22 | QVQLVESGGGLVQAGGSLRLSCAASGRIFTTYAMGWYRQEPGKERELVAAISQNGGSTYYADSVKGRFTISRDNAKNTVYLQMNTLKPEDTAVYYCAAADYYGIRDLYASDGTHYYSWGQGTQVTVSS | low polyreactivity
23 | QVQLVESGGGLVQAGGSLRLSCAASGFTFSYYARGWYRQAPGKARELVATISSGGITNYADSVKGRFTISRDNAKNTDYLQMNSLKPEDTAVYYCAAEPSWWNVFYPGYNYWGQGTQVTVSS | high polyreactivity
24 | QVQIVESGGGLVQAGGSLRLSCAASGSTFEVNAMGWYRQAPGKERELVAVITSGGSTNYADSVKGPFTISRDNAKNTVYLQMNSLKPEDTAVYYCAKDSRTLEDYWGQGTQVTVSS | low polyreactivity
25 | QVQLVESGGGLVQAGGSLRLSCAASGSIFHQYAMGWYRQAPGKERELVAAISANGGRTYYADSVKGRFTISRDNAKNTVYLQMNSLIPEDTAVYYCAASRPSYGVRYGYWGQGTQVTGSS | high polyreactivity
26 | QVQLLESGVGLVQAGGSLRLSCAASGTIFVDYAMGWYRQAPGKERQLVAAITSVGRTNYADSVKGRFTISRDNAKNTVYLQMNSLKPEDTAVYYCNKTRYTNYYTTTFDYWGQGTQVTVSS | low polyreactivity
27 | QVQLVESGGGLVQAGGSLRLSCAASGRTFNDYTMGWYRQAPGKERELVAAISSSGVRTYYADSVKGRFTISRDNAKNTVYLQMNSLKPEDTAVYYAKRAGYDRRWTYDYWGQGTQVTVSS | high polyreactivity
28 | QVQLVESGGGLVQAGGILRLSCAASGSIFNGYAMGWYRQSPGKERELVAAISWNGGSTYYADSVKGRFTISRDNAKNTFYLLMNSLKPEDTAVYYFAAGGYYDSRTYYYWGQGTQVSVSS | high polyreactivity
29 | QVQLVESGGGLVQAGGSLRLSCAASGFIFVYNDMGWYRQAPGKERELVASISNGDNTNYADSVKGRFTISRDNAKNTVYLQMNSLKPEDTAVYYCAARGTIYVLGVPARPVPDGDYWGQGTQVTVSS | low polyreactivity
30 | QVQLVESGGGLVQAGGSLRLSCAASGLIFYSNAMGWYRQAPGKDRELVAAITTSGSSTYYADSVKGRFTISRDNAKNTVYIPMNSLKPEDTAVYYCATEWRSNYWGQGTQVTVSS | low polyreactivity
31 | QVQLVESGGGLVQAGASLRLSCAASGLNFKRNAMGWYRQAPGKERELVAAIRYSTDSTNYADSVKGRFTISRDNAKNTVFLQMNSLKPEDTAVYYCAKDKQDYEYWGQGTLVTVSS | low polyreactivity
32 | PVQLVETGGGLVQAGGSLRLSCAASGGIFTLYVLGWYRQPPGKERELVAAISRTGGSTYYADSVKARFTISRDNAKNTVYLQMNSLKPEDTAVYYCAADYRQPSAFYYWGQGTQVTVSS | high polyreactivity
